Tests used:
[1] = biological target: MERS-CoV S 2P trimer (S ectodomain, residues 19-1294) (MERS-CoV) (UniProt K9N5Q8); assay: SEC-MALS
[2] = biological target: SARS-CoV S 2P trimer (S ectodomain, residues 12-1193) (SARS-CoV) (UniProt P59594); assay: SEC-MALS

Row | Substance | stoichiometry N [1] | stoichiometry N [2]
1 | MERS-CoV S 2P trimer (S ectodomain, residues 19-1294) (from UniProt K9N5Q8 19-1294) (natural protein) | 3 | –
2 | SARS-CoV S 2P trimer (S ectodomain, residues 12-1193) (from UniProt P59594 12-1193) (natural protein) | – | 3

From publication PMC7311918
